The values that follow come from US20020193564A1, “Oligomeric chaperone proteins” (priority 1999, published 2002).

One test concerns E. coli SV2 groEL44. Nature of the test: In vivo complementation of ts groEL44 at 43° C. Type of test: cell-based. Particulars: for Relative colony forming ability, SV2 groEL44: plasmids pJC, relative to growth at 30° C. As to the method: (§1) In vivo Complementation Experiments.
(§2) Complementation experiments were performed by transforming electro-competent SV2 or SV6 cells with the pJC series of expression vectors and plating an aliquot of the transformation reactions directly at 43° C. The percentage of viable cells relative to the growth at 30° C. was determined. A representative number of clones which grew at 43° C. were incubated in absence of any selective markers at permissive temperature. After prolonged growth the loss of the pJC plasmids and the ts phenotype were verified. Each experiment was performed in duplicate. Plasmids carrying no groE genes or encoding the GroE proteins were used as negative or positive controls, respectively.

Another test concerns bacteriophage λ. Nature of the test: Growth of bacteriophage λ in transformed groEL strains. Details: key to Growth of bacteriophage λ, SV1 (groEL^+) / Growth of bacteriophage λ, SV2 groEL44: +++: normal plaque-forming ability relative to wild-type groEL^+ strain, in terms of both number and size; ++: 5-fold fewer plaques relative to wild-type groEL^+ strain, or both; 10-fold fewer plaques, or plaque size reduced relative to wild-type groEL^+ strain, or both; +/−: 10^2-fold fewer plaques and plaque size reduced relative to wild-type groEL^+ strain; no visible plaques (<10^−4). Type of test: cell-based, bacteriophage λ (b2cI) in E. coli. Particulars: for Effect of over-expression on λ growth / plaque counts: SV1 (groE^+); for Growth of bacteriophage λ, SV1 (groEL^+) / Growth of bacteriophage λ, SV2 groEL44 / Growth of bacteriophage λ, SV3 GroEL59 / Growth of bacteriophage λ, SV6 groEL673: 30° C. From the text: (§3) The E. Coli strains used in this study were: C41(DE3), a mutant of BL21(DE3) capable of expressing toxic genes (Miroux, B. & Walker, J. E. (1996) J. Mol. Biol. 260, 289-298); SV2 (B178groEL44), SV3 (B178groEL59) and SV6 (B178groEL673): isogenic strains carrying temperature-sensitive alleles of groEL; SV1(=B178) (Georgopoulos, C., Hendrix, R. W., Casjens, S. R. & Kaiser, A. D. (1973) J. Mol. Biol. 76, 45-60), A190 (ΔgroEL::kan^R) [pBAD-EL] (Ivic, A., Olden, D., Wallington, E. J. & Lund, P. A. (1997) Gene 194, 1-8), and TG1 (Gibson, T. J. (1984) Ph.D. thesis, University of Cambridge, U.K). Bacteriophage λb2cI (Zeilstra-Ryalls, J., Fayet, O., Baird, L. & Georgopoulos, C. (1993) J. Bacteriol. 175, 1134-1143) was used according to standard methods (Arber, W., Enquist, L., Hohn, B., Murray, N. E. & Murray, K. (1983) in Lambda II., ed. R. W. Hendrix, J. W. r., F. W. Stahl and R. A. Weisberg (Cold Spring Harbor Laboratory, Cold Spring Harbor, N.Y.), pp. 433-466); plaque formation was assayed at 30° C. T4D0, a derivative of bacteriophage T4 (Zeilstra-Ryalls, J., Fayet, O., Baird, L. & Georgopoulos, C. (1993) J. Bacteriol. 175, 1134-1143), was used according to standard methods (Karam, J. D. (1994) Molecular biology of bacteriophage T4. (American Society for Microbiology, Washington, D.C.)); plaque formation was assayed at 37° C.

A further test relates to E. coli SV6 groEL673. Nature of the test: In vivo complementation of ts groEL673 at 43° C. Particulars: for Relative colony forming ability, SV6 groEL673: plasmids pJC, relative to growth at 30° C. In kind it is cell-based. On the procedure: as §1, §2
Test [1] concerns mutant Huntingdon exon 1-expressing PC12 and SH-SY5Y cells. Nature of the test: Inclusion formation and cell death, mutant Huntingdon exon 1. Type of test: cell-based. Particulars: overexpression. From the text: These phenomena have been studied by transiently transfecting part of Huntingdon exon 1 in COS-7, PC12, and SH-SY5Y cells. Inclusion formation was not seen with constructs expressing 23 glutamines but was repeat length and time dependent for mutant constructs with 43-74 repeats. HSP70, HSP40, the 20S proteasome and ubiquitin colocalized with inclusions. […] Thus, inclusion formation may be enhanced in polyglutamine diseases, if the pathological process results in proteasome inhibition or a heat-shock response. […] To our knowledge, this is the first report of an HSP increasing aggregation of an abnormally folded protein in mammalian cells and expands the current understanding of the roles of HDJ-2yHSDJ in protein folding (See Wyttenbach, A. et al. (2000) Proc. Natl. Acad. Sci. USA 97, 2899-2903).
We have tested MC72 in the same system.

The next test deals with bacteriophage T4. The experiment in a line: Growth of bacteriophage T4 in transformed groEL strains. In kind it is cell-based, bacteriophage T4 (T4D0) in E. coli. Also noted: key to Growth of bacteriophage T4, SV1 (groEL^+) / Growth of bacteriophage T4, SV2 groEL44 / Growth of bacteriophage T4, SV3 GroEL59 / Growth of bacteriophage T4, SV6 groEL673: +++: normal plaque-forming ability relative to wild-type groEL^+ strain, in terms of both number and size; ++: 5-fold fewer plaques relative to wild-type groEL^+ strain, or both; 10-fold fewer plaques, or plaque size reduced relative to wild-type groEL^+ strain, or both; +/−: 10^2-fold fewer plaques and plaque size reduced relative to wild-type groEL^+ strain; no visible plaques (<10^−4). Particulars: for Growth of bacteriophage T4, SV1 (groEL^+) / Growth of bacteriophage T4, SV2 groEL44 / Growth of bacteriophage T4, SV3 GroEL59 / Growth of bacteriophage T4, SV6 groEL673: 37° C.
From the text: as §3

In test [2] the test system is AI90 (ΔgroEL::kan^R) [pBADEL] E. coli strain. The experiment in a line: Plating ability of AI90 on GroEL depletion at 37° C. Type of test: cell-based. Also noted: key to Plating ability, 0.00 % L(+)arabinose: +++: growth identical to that in presence of 0.2% L(+)arabinose (100%), in terms of both number and size; ++: about 50% of the colonies relative to that in presence of 0.2% L(+)arabinose; +: about 30% of the colonies; +/−: ≦5% of the colonies and size reduced relative to that in presence of 0.2% L(+)arabinose; −: no visible colonies. As to the method: AI90 (ΔgroEL::kan^R) [pBAD-EL] cells were transformed with the pJC vector series. Transformants were selected at 37° C. on LB supplemented with 50 μg.ml^−1 of kanamycin, 120 μg.mL^−1 of ampicillin, 25 μg.mL^−1 of chloramphenicol and 0.2% L(+)arabinose. Depletion of GroEL protein was analysed at 37° C. by plating the same quantity of AI90 [PBAD-EL+pJC vectors] cells on LB plates containing 1% D(+)glucose or various amount of arabinose.
Each experiment was performed in triplicate. Plasmids carrying no groE genes or encoding the GroE proteins were used as negative or positive controls, respectively.

The test system of test [3] is mutant Huntingdon exon 1-expressing PC12 and SH-SY5Y cells. Particulars: overexpression; cited from earlier work.

Read-outs that look alike come from different tables or passages of the source. Bounds are passed on as bounds.

As for “GroES-EL: plasmid encoding the GroE proteins GroES and GroEL, positive control”, the “Relative colony forming ability, SV2 groEL44” value with E. coli SV2 groEL44 was 1. In addition, the “Effect of over-expression on λ growth / plaque counts” value in the test with bacteriophage λ is given as “four-fold drop in plaques”. In the test with E. coli SV6 groEL673, the “Relative colony forming ability, SV6 groEL673” value stood at 1.

Consider yeast Hsp104: yeast chaperone Hsp104, for which, in test [1], the cell death entry was “reduced” and the inclusion formation entry is listed as “reduced inclusion formation”.

B1: sht-GroEL(191-376): histidine-tagged (short histidine tail; sht) minichaperone GroEL(191-376) (protein, UniProt P0A6F5 191-376, looked up, fragment)
chain: EGMQFDRGYLSPYFINKPETGAVELESPFILLADKKISNIREMLPVLEAVAKAGKPLLIIAEDVEGEALATLVVNTMRGIVKVAAVKAPGFGDRRKAMLQDIATLTGGTVISEEIGMELEKATLEDLGQAKRVVINKDTTTIIDGVGEEAAIQGRVAQIRQQIEEATSDYDREKLQERVAKLAGGV
modifications: short His tag
Take B1: in the test with bacteriophage T4, the “Growth of bacteriophage T4, SV1 (groEL^+)” value is “+++”; the “Growth of bacteriophage T4, SV2 groEL44” value was “− (no visible plaques (<10^−4))”; the “Growth of bacteriophage T4, SV3 GroEL59” value is given as “+++”; the “Growth of bacteriophage T4, SV6 groEL673” value was “− (no visible plaques (<10^−4))”. The “Relative colony forming ability, SV2 groEL44” value with E. coli SV2 groEL44 is given as <10^−4. In addition, the “Plating ability, 0.00 % L(+)arabinose” value in test [2] (0.00% arabinose) is recorded as “−”. Moreover, the “Plating ability, 0.01 % L(+)arabinose” value in test [2] (0.01% arabinose) was “+/− (≦5% of the colonies and size reduced relative to that in presence of 0.2% L(+)arabinose)”. In test [2] (0.10% arabinose), the “Plating ability, 0.10 % L(+)arabinose” value is given as “+ (about 30% of the colonies)”. Besides, in test [2] (0.15% arabinose), the “Plating ability, 0.15 % L(+)arabinose” value is “++ (about 50% of the colonies relative to that in presence of 0.2% L(+)arabinose)”. Also, in the test with bacteriophage λ, the “Growth of bacteriophage λ, SV1 (groEL^+)” value is “+++”; the “Growth of bacteriophage λ, SV2 groEL44” value is “− (no visible plaques (<10^−4))”; the “Growth of bacteriophage λ, SV3 GroEL59” value is listed as “− (no visible plaques (<10^−4))”; the “Growth of bacteriophage λ, SV6 groEL673” value was “− (no visible plaques (<10^−4))”. For the same molecule, the “Relative colony forming ability, SV6 groEL673” value in the test with E. coli SV6 groEL673 is <10^−4.

B2: sht-GroEL(193-335): short histidine tail minichaperone, GroEL residues 193-335 (protein, UniProt P0A6F5 193-335, looked up, fragment)
chain: MQFDRGYLSPYFINKPETGAVELESPFILLADKKISNIREMLPVLEAVAKAGKPLLIIAEDVEGEALATLVVNTMRGIVKVAAVKAPGFGDRRKAMLQDIATLTGGTVISEEIGMELEKATLEDLGQAKRVVINKDTTTIIDG
modifications: short His tag
In the case of B2, in the test on E. coli SV2 groEL44, the “Complementation of the groEL44 defect in SV2” value is “complements the defect in SV2” and the “Relative colony forming ability, SV2 groEL44” value was 0.05-0.09. For the same molecule, in the test on E. coli SV6 groEL673, the “Complementation of the groEL673 defect in SV6” value was “less well” and the “Relative colony forming ability, SV6 groEL673” value was 0.03-0.05.

B3: GroES(1-97): co-chaperone of GroEL, seven membered ring of 10 kD subunits (protein, UniProt P0A6F9 1-97, looked up)
Co-chaperonin GroES: MNIRPLHDRVIVKRKEVETKSAGGIVLTGSAAAKSTRGEVLAVGNGRILENGEVKPLDVKVGDIVIFNDGYGVKSEKIDNEEVLIMSESDILAIVEA
With B3, in the test on bacteriophage T4, the “Growth of bacteriophage T4, SV1 (groEL^+)” value is listed as “+++”; the “Growth of bacteriophage T4, SV2 groEL44” value is “+++”; the “Growth of bacteriophage T4, SV3 GroEL59” value is reported as “+++”; the “Growth of bacteriophage T4, SV6 groEL673” value was “− (no visible plaques (<10^−4))”. In addition, in the test on bacteriophage T4 (groEL strains), the “Effect of over-expression on bacteriophage T4 growth in groEL strains” value was “allele-specific complementation”. Also, the “Relative colony forming ability, SV2 groEL44” value in the test with E. coli SV2 groEL44 is recorded as 5 × 10^−3. In addition, in the test on bacteriophage λ, the “Complementation of groEL mutant strains for bacteriophage λ growth” value is “allele-specific complementation”; the “Growth of bacteriophage λ, SV1 (groEL^+)” value is “+++”; the “Growth of bacteriophage λ, SV2 groEL44” value is “+++”; the “Growth of bacteriophage λ, SV3 GroEL59” value is listed as “− (no visible plaques (<10^−4))”. Also, in the test on bacteriophage λ, the “Growth of bacteriophage λ, SV6 groEL673” value was “− (no visible plaques (<10^−4))” and the “Effect of over-expression on λ growth / plaque counts” value is “no effect”. For the same molecule, the “Relative colony forming ability, SV6 groEL673” value with E. coli SV6 groEL673 is on record as <10^−4.

B4: sht-GroEL(191-345): short histidine tail minichaperone, GroEL residues 191-345 (protein, UniProt P0A6F5 191-345, looked up, fragment)
chain: EGMQFDRGYLSPYFINKPETGAVELESPFILLADKKISNIREMLPVLEAVAKAGKPLLIIAEDVEGEALATLVVNTMRGIVKVAAVKAPGFGDRRKAMLQDIATLTGGTVISEEIGMELEKATLEDLGQAKRVVINKDTTTIIDGVGEEAAIQGR
modifications: short His tag
As to B4, the “Relative colony forming ability, SV2 groEL44” value with E. coli SV2 groEL44 is recorded as 0.01-0.02. Also, in the test on E. coli SV6 groEL673, the “Complementation of the groEL673 defect in SV6” value is “complemented” and the “Relative colony forming ability, SV6 groEL673” value is 0.07-0.09.

B5: GroEL(191-345): GroEL(191-345) minichaperone monomer (protein, UniProt P0A6F5 191-345, looked up, fragment)
chain: EGMQFDRGYLSPYFINKPETGAVELESPFILLADKKISNIREMLPVLEAVAKAGKPLLIIAEDVEGEALATLVVNTMRGIVKVAAVKAPGFGDRRKAMLQDIATLTGGTVISEEIGMELEKATLEDLGQAKRVVINKDTTTIIDGVGEEAAIQGR
modifications: apical domain
notes: GroEL(191-345) minichaperone monomer
With B5, in test [3], the cell death result is recorded as “reduced cell death” and the “proportion of cells with inclusions / inclusion formation” value is “reduced slightly but significantly”.
